US7399847 (GENERAL HOSPITAL, dated 2008)
Each block holds one binder with its values, some of them ahead of it.

B5: P-selectin:immunoglobulin fusion protein (Fc fusion, UniProt P16109 42-321, looked up)
chain: WTYHYSTKAYSWNISRKYCQNRYTDLVAIQNKNEIDYLNKVLPYYSSYYWIGIRKNNKTWTWVGTKKALTNEAENWADNEPNNKRNNEDCVEIYIKSPSAPGKWNDEHCLKKKHALCYTASCQDMSCSKQGECLETIGNYTCSCYPGFYGPECEYVRECGELELPQHVLMNCSHPLGNFSFNSQCSFHCTDGYQVNGPSKLECLASGIWTNKPPQCLAAQCPPLKIPERGNMTCLHSAKAFQHQSSCSFSCEEGFALVGPEVVQCTASGVWTAPAPVCKA
notes: domain: lectin, EGF-related, and first two short consensus repeat related domains; Made in COS cells; captured from supernatant on wells coated with goat anti-human IgG Fc; also called soluble P-selectin; P-selectin Ig chimera; not shown: hinge, CH2, and CH3 domains of human IgG1

Experiments:
[1] = molecular target: B5; assay: static binding assay, transfected COS cells (with FTVIIh) on plastic coated with P-selectin Ig
Protocol: The cells were then loaded with 100 µl ^51CrO_4 (1 mCi/ml; DuPont, Boston, Mass.) in 0.9% NaCl plus 100 ml medium by incubating them at 37° C. for 1 hour. Loaded cells were washed twice in PBS and resuspended in 0.2% BSA, 0.15 M NaCl, 3 mM CaCl_2. Variation in labeling rate (counts incorporated per cell) between cells prepared in parallel with the same batch of labeled chromate was typically minimal. […] After the plate was washed twice with PBS, additional protein-binding sites were blocked by an overnight incubation with 200 µl 3% BSA in PBS. The plate was washed with PBS four times and incubated with 200 µl of fusion protein supernatants for 2 hours. Following three PBS washes and one additional wash (in 0.2% BSA, 0.15 M NaCl, 3 mM CaCl_2), 2×10^5 cells/well (in 200 µl 0.2% BSA, 0.15 M NaCl, 3 mM CaCl_2) were added and allowed to bind for 15 minutes at room temperature while the plate rotated on a rotary platform (80 rpm). The plate was washed three times by filling the wells with 200 µl 0.15 M NaCl/3 mM CaCl_2 and then inverting the plate. Adherent cells were lysed by the addition of 200 µl 2% SDS, and labeled chromate was counted with a gamma ray spectrometer.

[2] = molecular target: B5; assay: adhesion of 51Cr-labelled transfected COS cells to immobilized P-selectin:Ig
[3] = molecular target: T1, PSGL-1 amino-terminal deletion beginning at precursor R38 (UniProt Q14242 38-412); assay: as above
T1 construct: range 38-end (end not numbered), on cells; also called removal of the first 20 amino acids of the N-terminus of the mature PSGL-1
T1 sequence: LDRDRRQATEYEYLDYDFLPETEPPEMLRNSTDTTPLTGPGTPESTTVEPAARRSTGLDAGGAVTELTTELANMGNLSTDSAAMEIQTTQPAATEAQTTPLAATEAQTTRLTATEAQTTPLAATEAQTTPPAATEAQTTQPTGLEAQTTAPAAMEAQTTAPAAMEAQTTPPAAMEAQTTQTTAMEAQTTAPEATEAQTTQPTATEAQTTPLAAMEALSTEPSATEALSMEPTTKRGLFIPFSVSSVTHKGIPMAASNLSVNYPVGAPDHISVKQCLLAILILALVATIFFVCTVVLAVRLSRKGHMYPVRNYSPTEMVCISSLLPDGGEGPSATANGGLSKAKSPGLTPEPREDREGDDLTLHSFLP

[4] = molecular target: T2, PSGL-1 amino-terminal deletion beginning at precursor E58 (UniProt Q14242 58-412); assay: as above
T2 construct: range 58-end (end not numbered), on cells; also called removal of the first 40 amino acids of the N-terminus
T2 sequence: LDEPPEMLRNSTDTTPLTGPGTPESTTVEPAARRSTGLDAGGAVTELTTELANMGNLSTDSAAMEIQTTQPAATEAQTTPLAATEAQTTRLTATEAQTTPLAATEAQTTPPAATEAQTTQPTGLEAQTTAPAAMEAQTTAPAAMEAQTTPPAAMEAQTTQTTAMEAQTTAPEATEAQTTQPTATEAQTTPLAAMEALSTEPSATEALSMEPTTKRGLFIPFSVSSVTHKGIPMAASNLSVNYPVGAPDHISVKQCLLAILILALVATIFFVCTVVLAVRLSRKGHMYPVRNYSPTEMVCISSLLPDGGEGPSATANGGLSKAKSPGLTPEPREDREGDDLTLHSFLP

[5] = molecular target: T3, PSGL-1 amino-terminal deletion beginning at precursor P78 (UniProt Q14242 78-412); assay: as above
T3 construct: range 78-end (end not numbered), on cells; also called further deletion of PSGL
T3 sequence: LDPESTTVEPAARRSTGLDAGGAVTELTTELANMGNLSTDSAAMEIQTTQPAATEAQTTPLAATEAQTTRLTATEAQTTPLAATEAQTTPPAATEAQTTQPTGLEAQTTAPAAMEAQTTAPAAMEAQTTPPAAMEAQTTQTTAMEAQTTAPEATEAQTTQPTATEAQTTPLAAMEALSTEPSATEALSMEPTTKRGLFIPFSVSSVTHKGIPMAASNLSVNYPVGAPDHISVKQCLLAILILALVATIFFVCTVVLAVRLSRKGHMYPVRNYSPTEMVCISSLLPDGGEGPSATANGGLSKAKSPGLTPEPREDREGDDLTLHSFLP

[6] = molecular target: T4, PSGL-1 amino-terminal deletion beginning at precursor A98 (UniProt Q14242 98-412); assay: as above
T4 construct: range 98-end (end not numbered), on cells; also called further deletion of PSGL
T4 sequence: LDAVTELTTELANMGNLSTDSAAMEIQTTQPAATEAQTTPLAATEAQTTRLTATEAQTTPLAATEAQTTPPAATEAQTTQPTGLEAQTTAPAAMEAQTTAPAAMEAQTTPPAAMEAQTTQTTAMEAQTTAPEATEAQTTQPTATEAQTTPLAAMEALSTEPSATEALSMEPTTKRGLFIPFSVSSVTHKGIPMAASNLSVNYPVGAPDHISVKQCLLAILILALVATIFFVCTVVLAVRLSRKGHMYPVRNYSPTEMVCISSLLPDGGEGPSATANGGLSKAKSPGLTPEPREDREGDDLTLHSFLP

[7] = molecular target: T5, PSGL-1 residues 38-57 with tyrosines converted to phenylalanine, on the truncated PSGL-1 lacking the apical … (UniProt Q14242 118-412); assay: as above
T5 construct: domain: truncated PSGL-1 lacking the apical domain, on cells
T5 sequence: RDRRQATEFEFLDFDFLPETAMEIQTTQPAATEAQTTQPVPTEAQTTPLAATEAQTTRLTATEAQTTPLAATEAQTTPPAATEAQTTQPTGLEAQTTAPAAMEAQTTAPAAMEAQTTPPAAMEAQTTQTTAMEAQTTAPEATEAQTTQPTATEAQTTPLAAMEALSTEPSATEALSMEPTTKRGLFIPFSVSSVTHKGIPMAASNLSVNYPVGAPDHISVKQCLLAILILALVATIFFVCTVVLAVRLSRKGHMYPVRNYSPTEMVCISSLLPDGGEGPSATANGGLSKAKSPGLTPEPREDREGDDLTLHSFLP

[8] = molecular target: T6, PSGL-1 deletion mutant lacking the amino terminal 100 residues (apical domain) (UniProt Q14242 118-412); assay: as above
T6 construct: range 118-end (end not numbered), on cells; Cotransfected with FTVII; also called Xba1 (label inferred from the order of the endpoints)
T6 sequence: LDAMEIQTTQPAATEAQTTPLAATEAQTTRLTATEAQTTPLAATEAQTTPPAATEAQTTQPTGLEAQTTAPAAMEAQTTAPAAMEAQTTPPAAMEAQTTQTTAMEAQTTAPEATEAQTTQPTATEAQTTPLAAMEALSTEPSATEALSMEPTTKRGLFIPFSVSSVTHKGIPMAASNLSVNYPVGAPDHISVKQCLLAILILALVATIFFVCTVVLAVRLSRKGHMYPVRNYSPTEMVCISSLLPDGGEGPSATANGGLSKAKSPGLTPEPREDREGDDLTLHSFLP

binding result [1]: binds
B1: Factor VIII-CD43 synthetic P-selectin ligand (designed binder)
chain: TGDYYEDSYEDISITTNSPETSSRTSGAPVTTAASSLETSRGTSGPPLTMATVSLETSKGTSGPPVTMATDSLETSTGTTGPPVTMTTGSLEPSSGASGPQVSS
modifications: tyrosine sulfation site of Factor VIII; sLe^x (FTVIIh cotransfected)
notes: also called CD43-F8; not shown: flu hemagglutinin oligopeptide tag

B2: PSGL-1 residues 38-57 (wildtype) appended to the CD43 mucin core (ligand, not shown: small tags and cut ends)
chain: RDRRQATEYEYLDYDFLPETITTNSPETSSRTSGAPVTTAASSLETSRGTSGPPLTMATVSLETSKGTSGPPVTMATDSLETSTGTTGPPVTMTTGSLEPSSGASGPQVSS
modifications: as the filing concludes: sulfated tyrosines at 46, 48 and 51; sLe^x on threonines 44 and 57
notes: Cotransfected with FTVII
binding result [2]: binds

B3: PSGL-1 residues 38-57 with tyrosines converted to phenylalanine, on the CD43 repeat elements and transmembrane domain (ligand, not shown: small tags and cut ends)
chain: RDRRQATEFEFLDFDFLPETITTNSPETSSRTSGAPVTTAASSLETSRGTSGPPLTMATVSLETSKGTSGPPVTMATDSLETSTGTTGPPVTMTTGSLEPSSGASGPQVSS
binding result [2]: no binding

B4: PSGL-1 residues 38-57 with threonines converted to alanines, on the CD43 repeat elements and transmembrane domain (ligand, not shown: small tags and cut ends)
chain: RDRRQAAEYEYLDYDFLPEAITTNSPETSSRTSGAPVTTAASSLETSRGTSGPPLTMATVSLETSKGTSGPPVTMATDSLETSTGTTGPPVTMTTGSLEPSSGASGPQVSS
binding result [2]: binds

Binder: B5
binding result [3]: binds
binding result [4]: no binding
binding result [5]: no binding
binding result [6]: no binding
binding result [7]: no binding
binding result [8]: no binding

B6: PSGL-1-NH2/CD43 rep. (ligand, not shown: small tags and cut ends)
chain: LQLWDTWADEAEKALGPLLARDRRQATEYEYLDYDFLPETEPPEMLRNSTDTTPLTGPGTPESTTVEPAARRSTGLDAGGAVTELTTELANMGNLSTDSAEFITTNSPETSSRTSGAPVTTAASSLETSRGTSGPPLTMATVSLETSKGTSGPPVTMATDSLETSTGTTGPPVTMTTGSLEPSSGASGPQVSS
notes: range mature amino terminus-117; Cotransfected with FTVIIh; also called PSGL-1-NH2/CD43 repeats; PSGL-1 apical domain on the CD43 repeat region
binding result [2]: binds
